Data as given in patent publication US20210338809A1, “Immune Tolerance-Inducing Agent and Therapeutic or Prophylactic Agent for Allergic Disorder” (Tokushima University, priority 2018, published 2021).

Key:
[1] = system: casein transdermally sensitized mice; test: Anaphylaxis-eliciting test by intraperitoneal challenge with casein after prophylactic immunization and casein transdermal sensitization; type: in vivo, mouse; conditions: subcutaneous injection 1 μg casein twice before sensitization
[2] = system: OVA transdermally sensitized model mice; test: Anaphylaxis-eliciting test using aspirin pre-administration and oral OVA challenge, rectal temperature monitoring; type: in vivo, mouse; conditions: for change in rectal temperature: from 30 minutes after challenge
Protocol: Balb/c mice (6-7 weeks old, female) were subjected to hair removal on the back of the head with hair clippers, then, 100 μL of aqueous SDS solution (4%) was uniformly applied to damage their skin barrier function, and after 10 minutes, 100 μL of an aqueous solution of ovomucoid (OVM) (manufactured by NACALAI TESQUE, INC.) (10 mg/mL), 100 μL of an aqueous solution of ovalbumin (OVA) (manufactured by Sigma-Aldrich) (10 mg/mL), or 100 μL of an aqueous solution of casein (manufactured by Sigma-Aldrich) (10 mg/mL) was uniformly applied. Such allergen applications were carried out a total of 10 times (for 2 weeks with a frequency of 5 times/week) to generate a transdermally sensitized food allergic mouse model against OVM, OVA, or casein. The mice 10-14 days after transdermal sensitization were subjected to the following experiments.
In accordance with the schedule shown in FIG. 1, the present inventors performed two types of loadings of “ASA pre-administration” and “allergen oral administration” in combination on the allergen transdermally sensitized mouse model of the present invention to examine whether anaphylaxis could be reliably elicited. Experimental procedures and results are shown in the following (1) to (4).
The OVA transdermally sensitized model mice (body weight of about 20 g) of the present invention were fasted for 2 hours or more and then oral administration of ASA (manufactured by Sigma-Aldrich) dissolved in 50% ethanol (1.25 mg/100 μL/mouse) was performed. Also, as a control, a group was provided to which oral pre-administration of 50% ethanol alone without ASA was performed.
Thirty minutes after the pre-administration of ASA or ethanol, an aqueous OVA solution (manufactured by Sigma-Aldrich) was orally challenged (20 mg/100 μL/mouse). In addition, as a control, a group was provided to which only water (without OVA) was orally administered.
In this experiment, rectal temperatures were measured at 10-minute intervals starting from 10 minutes before OVA administration and for 90 to 120 minutes after administration. Then, the temperature change after OVA administration was monitored using the temperature 10 minutes before OVA administration as a reference value. It was determined that the mouse developed anaphylaxis when the rectal temperature decreased by 1° C. or more relative to the reference value.

[3] = system: transdermally sensitized OVM allergic mouse model; test: Anaphylaxis-eliciting test with trace amount of OVM alone; type: in vivo
Protocol: Specifically, the transdermally sensitized OVM allergic mouse model (body weight of about 20 g, n=10) was subjected to fasting and ASA administration before the challenge test in accordance with the procedures of Example 2. Then an oral OVM challenge test was performed. The oral OVM challenge test was performed by orally challenging with 0.01 μg of OVM once and examining change in rectal temperature for 60 minutes.

casein
rectal temperature decrease in the other four cases [1]: worsening tendency | improvement of rectal temperature decrease after intraperitoneal challenge test ([1]; n=5): only one case

CC(=O)Oc1ccccc1C(=O)O [ASA/50% ethanol, acetylsalicylic acid, reference compound]
change in rectal temperature [2]: tendency of increase

B1: ovomucoid (protein, UniProt P01005 25-210, looked up)
Ovomucoid: AEVDCSRFPNATDKEGKDVLVCNKDLRPICGTDGVTYTNDCLLCAYSIEFGTNISKEHDGECKETVPMNCSSYANTTSEDGKVMVLCNRAFNPVCGTDGVTYDNECLLCAHKVEQGASVDKRHDGGCRKELAAVSVDCSEYPKPDCTAEDRPLCGSDNKTYGNKCNFCNAVVESNGTLTLSHFGKC
induction of anaphylaxis ([3]; 0.01 μg OVM alone orally): does not induce anaphylaxis | rectal temperature after administration ([3]; 0.01 μg OVM alone orally once, 60 minutes, n=10, ASA pre-administered): did not decrease

B2: ovalbumin (protein, UniProt P01012 2-386, looked up)
Ovalbumin: GSIGAASMEFCFDVFKELKVHHANENIFYCPIAIMSALAMVYLGAKDSTRTQINKVVRFDKLPGFGDSIEAQCGTSVNVHSSLRDILNQITKPNDVYSFSLASRLYAEERYPILPEYLQCVKELYRGGLEPINFQTAADQARELINSWVESQTNGIIRNVLQPSSVDSQTAMVLVNAIVFKGLWEKAFKDEDTQAMPFRVTEQESKPVQMMYQIGLFRVASMASEKMKILELPFASGTMSMLVLLPDEVSGLEQLESIINFEKLTEWTSSNVMEERKIKVYLPRMKMEEKYNLTSVLMAMGITDVFSSSANLSGISSAESLKISQAVHAAHAEINEAGREVVGSAEAGVDAASVSEEFRADHPFLFCIKHIATNAVLFFGRCVSP
notes: ovalbumin, egg allergen
decrease in rectal temperature ([2]; 10 minutes after oral OVA challenge): around 1.1 °C | elicitation of anaphylaxis ([2]; oral OVA challenge 20 mg/mouse): extremely mild

B3: 50% ethanol+OVA: 50% ethanol alone pre-administered, followed by oral OVA challenge (protein, UniProt P01012 2-386, looked up)
Ovalbumin: GSIGAASMEFCFDVFKELKVHHANENIFYCPIAIMSALAMVYLGAKDSTRTQINKVVRFDKLPGFGDSIEAQCGTSVNVHSSLRDILNQITKPNDVYSFSLASRLYAEERYPILPEYLQCVKELYRGGLEPINFQTAADQARELINSWVESQTNGIIRNVLQPSSVDSQTAMVLVNAIVFKGLWEKAFKDEDTQAMPFRVTEQESKPVQMMYQIGLFRVASMASEKMKILELPFASGTMSMLVLLPDEVSGLEQLESIINFEKLTEWTSSNVMEERKIKVYLPRMKMEEKYNLTSVLMAMGITDVFSSSANLSGISSAESLKISQAVHAAHAEINEAGREVVGSAEAGVDAASVSEEFRADHPFLFCIKHIATNAVLFFGRCVSP
modifications: after 50% ethanol pretreatment
change in rectal temperature [2]: increase
